Source: patent publication US20200377595A1

Target: recombinant human CD3 (human)
Experiment: SPR, Ab captured by anti-Fc, 37 C

Chain of recombinant human CD3 (human) (P07766 22-126, chain 1 of 2): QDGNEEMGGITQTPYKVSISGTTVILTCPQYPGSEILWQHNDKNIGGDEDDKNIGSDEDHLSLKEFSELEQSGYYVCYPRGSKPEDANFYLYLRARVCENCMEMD
Chain of recombinant human CD3 (human) (P04234 22-100, chain 2 of 2, further chain): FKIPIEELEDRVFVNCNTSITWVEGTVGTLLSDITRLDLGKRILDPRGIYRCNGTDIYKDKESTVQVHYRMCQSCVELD

B1: GPC3/CtrlxCD3 trispecific antibody (protein, part only; not given: control arm and constant regions, not shown: another chain or arm of the molecule; a dimerising Fc or GST)
VH 1: QVQLVESGGGLVQPGRSLRLSCAASGFTFSNAWMHWVRQAPGKGLEWVAQIKDRANSYNTYYAESVKGRFTISRDDSKNSIYLQMNSLKTEDTAVYYCRYVHYTTYAGSSFSYGVDAWGQGTTVTVSS
VL 1: DIVMTQSPLSLPVTPGEPASISCRSSQPLVHSNRNTYLHWYQQKPGQAPRLLIYKVSNRFSGVPDRFSGSGSGTDFTLKISRVEAEDVGVYYCGQGTQVPYTFGQGTKLEIK
VH 2: QVQLVQSGAEVKKPGASVTVSCKASGYTFTDYEMHWIRQPPGEGLEWIGAIDGPTPDTAYSEKFKGRVTLTADKSTSTAYMELSSLTSEDTAVYYCTRFYSYTYWGQGTLVTVSS
VL 2: B1 VL 1
Kd: 17.8 nM | koff: 0.00151 s⁻¹ | kon: 85000 M⁻¹ s⁻¹
